Biological target: T1, human VEGFA-121 (VEFG-A-121-His) (human, UniProt P15692-9 27-147)
T1 construct: Captured on an anti-His antibody surface; not shown: His tag
T1 sequence (looked up): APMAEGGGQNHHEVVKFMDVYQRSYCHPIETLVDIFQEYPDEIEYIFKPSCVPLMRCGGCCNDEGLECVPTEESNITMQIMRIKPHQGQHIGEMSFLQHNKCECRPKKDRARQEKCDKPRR
Assay: SPR (Biacore T200), VEGF-A-121-His captured on anti-His, antibody in solution, Langmuir 1:1

B1: Ang2VEGF-0477 (bispecific antibody, human IgG1, kappa)
light 1: QPGLTQPPSVSVAPGQTARITCGGNNIGSKSVHWYQQKPGQAPVLVVYDDSDRPSGIPERFSGSNSGNTATLTISRVEAGDEADYYCQVWDSSSDHYVFGTGTKVTVLRTVAAPSVFIFPPSDEKLKSGTASVVCLLNNFYPREAKVQWKVDNALQSGNSQESVTEQDSKDSTYSLSSTLTLSKADYEKHKVYACEVTHQGLSSPVTKSFNRGEC
heavy 1: not shown
light 2: DIQMTQSPSSLSASVGDRVTITCSASQDISNYLNWYQQKPGKAPKVLIYFTSSLHSGVPSRFSGSGSGTDFTLTISSLQPEDFATYYCQQYSTVPWTFGQGTKVEIKSSASTKGPSVFPLAPSSKSTSGGTAALGCLVKDYFPEPVTVSWNSGALTSGVHTFPAVLQSSGLYSLSSVVTVPSSSLGTQTYICNVNHKPSNTKVDKKVEPKSC
heavy 2: not shown
notes: Bivalent bispecific CrossMAb CH1-CL
- koff: 6.11e-05 s⁻¹
